Laboratory results reported in patent US20210221875A1 (Chugai, published 2021).

Columns and labels:
soluble human IL-6R [1] = target: T1, soluble human IL-6R (human, UniProt P08887 20-357); test: BLI (Octet), in the same way as in Example 3, 30 C or 25 C
T1 construct: also called hsIL-6R; recombinant human IL6R
T1 sequence: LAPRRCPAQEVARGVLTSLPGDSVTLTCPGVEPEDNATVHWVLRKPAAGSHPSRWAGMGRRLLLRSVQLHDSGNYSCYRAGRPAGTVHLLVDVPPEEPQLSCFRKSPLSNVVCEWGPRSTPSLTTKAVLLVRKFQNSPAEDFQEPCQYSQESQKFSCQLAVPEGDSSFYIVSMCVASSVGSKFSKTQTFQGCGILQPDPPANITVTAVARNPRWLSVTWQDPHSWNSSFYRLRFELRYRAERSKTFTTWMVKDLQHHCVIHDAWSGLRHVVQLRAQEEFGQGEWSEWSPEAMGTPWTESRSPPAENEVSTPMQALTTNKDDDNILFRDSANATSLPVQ

[2] = target: T2, Human aggrecan G1-IGD-G2 domain with Flag-tag on its C-terminus (human, UniProt P16112 17-675); test: SPR (Biacore), 37 C, as in Example 20
T2 construct: used unlabelled as Biacore analyte; also called human aggrecan G1-IGD-G2-Flag; human Aggrecan G1G2 flag
Description: (§1) The binding affinity of the antibodies at pH 7.4 was determined at 37 degrees C. using Biacore T200 instrument (GE Healthcare). Recombinant Protein A/G (Pierce) was immobilized onto all flow cells of a CM4 sensor chip using amine coupling kit (GE Healthcare). Antibodies and analytes were prepared in buffer (20 mM Sodium Phosphate, 150 mM NaCl, 0.05% Tween 20, 0.005% NaN₃, pH 7.4). Each antibody was captured onto the sensor surface by protein A/G. Antibody capture levels were aimed at 200 resonance unit (RU). […] Sensor surface was regenerated each cycle with 10 mM Glycine-HCl pH 1.5.

[3] = target: T3, biotin-rabbit aggrecan G1-IGD-G2-3xFlag (rabbit, UniProt Q28670 17-683, biotin on the N-terminal Avi-tag (BirA co-expression)); test: SPR (Biacore), 37 C, as in Example 20
T3 construct: three tandem Flag-tags at the C-terminus and Avi-tag at the N-terminus; also called biotinylated Avi-rabbit aggrecan G1-IGD-G2-3xFLAG; Avi RbG1G2 3FLAG
Description: as §1

[4] = target: T3, biotin-rabbit aggrecan G1-IGD-G2-3xFlag; test: SPR (Biacore T200), 37 C, pH 7.4, antibody captured, Avi RbG1G2 3Flag as analyte, 1:1 model;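 note: antibodies captured at roughly 200 RU on a CM4 or C1 chip through anti-human IgG Fc or Protein A/G, in sodium phosphate NaCl buffer with Tween 20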
Description: (§2) Anti-Human IgG (Fc) antibody was immobilized onto all flow cells of a CM4 sensor chip using Human antibody capture kit (GE Healthcare). Protein A/G was immobilized onto all flow cells of a CM4 or C1 sensor chip using amine coupling kit (GE Healthcare). Antibodies and analytes were prepared in buffer (50 mM Sodium Phosphate, 150 mM NaCl, 0.02% Tween 20, 0.005% NaN3, pH 7.4 or 20 mM Sodium Phosphate, 150 mM NaCl, 0.05% Tween20, 0.005% NaN₃, pH 7.4). Each antibody was captured onto the sensor surface by Anti-Human IgG (Fc) antibody or Protein A/G. Antibody capture levels were aimed at 200 resonance unit (RU). […] Sensor surface was regenerated each cycle with 3 M MgCl₂ or 10 mM Glycine-HCl, pH 1.5.

[5] = target: T3, biotin-rabbit aggrecan G1-IGD-G2-3xFlag; test: SPR (Biacore T200), 37 C, pH 7.4, antibody captured, Avi RbG1G2 3Flag as analyte, 1:1 model; second row with this name
Description: as §2

soluble human IL-6R [6] = target: T1, soluble human IL-6R; test: BLI (Octet HTX), molecule on Protein A sensor, hsIL-6R as analyte, 30 C
Description: The hsIL-6R binding evaluation of each molecule was conducted using Octet HTX (Pall ForteBio Corp.).

[7] = target: T2, Human aggrecan G1-IGD-G2 domain with …; test: SPR (Biacore T200), 37 C, pH 7.4, antibody captured by protein A/G, 1:1 model; footnote: fitting was not good due to bi-phasic interaction
Description: as §1

[8] = target: T3, biotin-rabbit aggrecan G1-IGD-G2-3xFlag; test: as above
Description: as §1

[9] = target: T2, Human aggrecan G1-IGD-G2 domain with …; test: SPR (Biacore T200), 37 C, pH 7.4, antibody captured by protein A/G, 1:1 model
Description: as §1

[10] = target: T3, biotin-rabbit aggrecan G1-IGD-G2-3xFlag; test: as above
Description: as §1

B1: 20A11hu-G1m/VL1-44-lamL (antibody, human IgG1, lambda, V domains shown)
VH: EVQLVESGGGLVQPGGSLRLSCAASGSVFKINVMAWVRQAPGKGLEWVAGIISGGSTSYADSVKGRFTISRDNAKNTLYLQMNSLRPEDTAVYYCAFITTESDYDLGRRYWGQGTLVTVSS
VL: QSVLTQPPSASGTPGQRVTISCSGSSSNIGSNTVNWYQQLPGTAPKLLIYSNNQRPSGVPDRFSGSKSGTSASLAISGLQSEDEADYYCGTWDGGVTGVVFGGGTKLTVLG
notes: IgG antibody-like molecule with VHH 20A11hu in place of VH
Does B1 bind (soluble human IL-6R [1])?
Result: no binding

B2: 20A11hu-G1m/VL2-14-lamL (antibody, human IgG1, lambda, V domains shown)
VH: EVQLVESGGGLVQPGGSLRLSCAASGSVFKINVMAWVRQAPGKGLEWVAGIISGGSTSYADSVKGRFTISRDNAKNTLYLQMNSLRPEDTAVYYCAFITTESDYDLGRRYWGQGTLVTVSS
VL: QSALTQPASVSGSPGQSITISCTGTSSDVGGYNYVSWYQQHPGKAPKLMIYEVSNRPSGVSNRFSGSKSGNTASLTISGLQAEDEADYYCSSYRSGYTLVVFGGGTKLTVLG
notes: as for B1
Does B2 bind (soluble human IL-6R [1])?
Result: no binding

B3: GRA0124ccAE02-rbIgG (antibody)
heavy: QSVEESGGRLVTPGTPLTLTCTVSGVDLSNYAIHWVRQAPGKGLEWIGMIRSNGMRYYGTWAKGRFTTSKTSSTTVDLKMTSPTTEDTATYFCARLWNIWGPGTLVTVSSGQPKAPSVFPLAPCCGDTPSSTVTLGCLVKGYLPEPVTVTWNSGTLTNGVRTFPSVRQSSGLYSLSSVVSVTSSSQPVTCNVAHPATNTKVDKTVAPSTCSKPMCPPPELLGGPSVFIFPPKPKDTLMISRTPEVTCVVVDVSQDDPEVQFTWYINNEQVRTARPPLREQQFNSTIRVVSTLPIAHQDWLRGKEFKCKVHNKALPAPIEKTISKARGQPLEPKVYTMGPPREELSSRSVSLTCMINGFYPSDISVEWEKNGKAEDNYKTTPTVLDSDGSYFLYSKLSVPTSEWQRGDVFTCSVMHEALHNHYTQKSISRSPGK
light: QVLTQTPSSTSVAVGGTVTINCQSSPSVYLNLLAWYQQKPGQPPKLLIYSASFLQSGVPPRFSGSGSGTQFTLTISGVQCADAATYYCAGVYSNNIYTFGGGTKVEIKRDPVAPTVLIFPPAADQVATGTVTIVCVANKYFPDVTVTWEVDGTTQTTGIENSKTPQNSADCTYNLSSTLTLTSTQYNSHKEYTCKVTQGTTSVVQSFNRGDC
notes: also called GRA0124ccAE02-rIgG
For B3, which Kd [2] is on record?
Its Kd is 0.553 µM.

And the koff [2]?
The koff was 0.0108 s⁻¹.

What about the kon [2] of the same binder?
Its kon is 19500 M⁻¹ s⁻¹.

What about the Kd [3] of the same binder?
Its Kd is 0.0164 µM.

What about the koff [3] of the same binder?
Its koff is 0.000333 s⁻¹.

What about the kon [3] of the same binder?
Its kon is 20400 M⁻¹ s⁻¹.

B4: GRA0124Hc0626-SG1/GRA0124Lc0544-SK2 (antibody, human IgG1, kappa)
heavy: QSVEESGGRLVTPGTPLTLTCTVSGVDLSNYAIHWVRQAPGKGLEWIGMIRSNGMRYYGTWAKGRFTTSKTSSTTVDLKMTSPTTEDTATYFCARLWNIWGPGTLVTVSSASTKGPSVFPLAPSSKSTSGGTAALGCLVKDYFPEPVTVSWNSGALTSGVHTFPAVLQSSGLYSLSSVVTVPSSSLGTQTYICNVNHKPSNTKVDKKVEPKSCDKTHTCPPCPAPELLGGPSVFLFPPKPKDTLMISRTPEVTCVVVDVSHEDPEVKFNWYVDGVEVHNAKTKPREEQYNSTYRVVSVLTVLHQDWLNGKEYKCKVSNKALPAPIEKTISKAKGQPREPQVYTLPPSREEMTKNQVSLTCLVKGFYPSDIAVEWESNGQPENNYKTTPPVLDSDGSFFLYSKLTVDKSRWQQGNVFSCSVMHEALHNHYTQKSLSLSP
light: AQVLTQTPSSTSVAVGGTVTINCQSSPSVYLNLLAWYQQKPGQPPKLLIYSASFLQSGVPPRFSGSGSGTQFTLTISGVQCADAATYYCAGVYSNNIYTFGGGTKVEIKRTVAAPSVFIFPPSDEQLKSGTASVVCLLNNFYPREAKVQWKVDNALQSGNSQESVTEQDSKDCTYSLSSTLTLSKADYEKHKVYACEVTHQGLSSPVTKSFNRGEC
notes: also called GRA0124ccAE02-SG1; GRA124ccAE02-SG1
How did the Kd [4] turn out when B4 was run?
Its Kd is 0.0156 µM.

And the koff [4]?
The koff was 0.000838 s⁻¹.

What about the kon [4] of the same binder?
The kon was 53900 M⁻¹ s⁻¹.

And the Kd [5]?
Its Kd is 0.00407 µM.

And the koff [5]?
Its koff is 0.000341 s⁻¹.

What about the kon [5] of the same binder?
Its kon is 83800 M⁻¹ s⁻¹.

B5: IL6R90-G1m/VK2-28-k0MT (antibody, human IgG1, kappa, V domains shown)
VH: EVQLVESGGGLVQPGGSLRLSCAASGFTFDDYGMSWVRQAPGKALEWVSAISWNGNNTYYTESMKGRFTISRDNAKNTLYLQMNSLRPEDTAVYYCVKGSTAIVGVPPTYPDEYDYWGQGTLVTVSS
VL: not shown
notes: IgG antibody-like molecule with VHH IL6R90 in place of VH
Does B5 bind (soluble human IL-6R [6])?
Result: no binding

B6: IL6R90-G1m/VL1-44-lamL (antibody, human IgG1, lambda, V domains shown)
VH: EVQLVESGGGLVQPGGSLRLSCAASGFTFDDYGMSWVRQAPGKALEWVSAISWNGNNTYYTESMKGRFTISRDNAKNTLYLQMNSLRPEDTAVYYCVKGSTAIVGVPPTYPDEYDYWGQGTLVTVSS
VL: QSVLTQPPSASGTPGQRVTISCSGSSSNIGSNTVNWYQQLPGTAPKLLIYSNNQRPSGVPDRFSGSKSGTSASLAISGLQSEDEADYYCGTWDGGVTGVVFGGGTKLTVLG
notes: as for B5
Does B6 bind (soluble human IL-6R [6])?
Result: no binding

B7: IL6R90-G1m/VL1-40-lamL (antibody, human IgG1, lambda, V domains shown)
VH: EVQLVESGGGLVQPGGSLRLSCAASGFTFDDYGMSWVRQAPGKALEWVSAISWNGNNTYYTESMKGRFTISRDNAKNTLYLQMNSLRPEDTAVYYCVKGSTAIVGVPPTYPDEYDYWGQGTLVTVSS
VL: QSVLTQPPSVSGAPGQRVTISCTGSSSNIGAGYDVHWYQQLPGTAPKLLIYGNSNRPSGVPDRFSGSKSGTSASLAITGLQAEDEADYYCQSYDNSLNAVVFGGGTKLTVLG
notes: as for B5
Does B7 bind (soluble human IL-6R [6])?
Result: no binding

B8: IL6R90-G1m/VL2-14-lamL (antibody, human IgG1, lambda, V domains shown)
VH: EVQLVESGGGLVQPGGSLRLSCAASGFTFDDYGMSWVRQAPGKALEWVSAISWNGNNTYYTESMKGRFTISRDNAKNTLYLQMNSLRPEDTAVYYCVKGSTAIVGVPPTYPDEYDYWGQGTLVTVSS
VL: QSALTQPASVSGSPGQSITISCTGTSSDVGGYNYVSWYQQHPGKAPKLMIYEVSNRPSGVSNRFSGSKSGNTASLTISGLQAEDEADYYCSSYRSGYTLVVFGGGTKLTVLG
notes: as for B5
Does B8 bind (soluble human IL-6R [6])?
Result: no binding

B9: GRA0105gg-rbIgG (antibody)
heavy: QSLEESGGGLVTPGTPLTLTCTVSGLSLSNSVMSWVRQAPGKGLEWIGFISIHDETNYATWAKGRFTISKTSSTTVDLKMTSPTTDDTATYFCARDGDSHGFYFGLWGPGTLVTVSSGQPKAPSVFPLAPCCGDTPSSTVTLGCLVKGYLPEPVTVTWNSGTLTNGVRTFPSVRQSSGLYSLSSVVSVTSSSQPVTCNVAHPATNTKVDKTVAPSTCSKPMCPPPELLGGPSVFIFPPKPKDTLMISRTPEVTCVVVDVSQDDPEVQFTWYINNEQVRTARPPLREQQFNSTIRVVSTLPIAHQDWLRGKEFKCKVHNKALPAPIEKTISKARGQPLEPKVYTMGPPREELSSRSVSLTCMINGFYPSDISVEWEKNGKAEDNYKTTPTVLDSDGSYFLYSKLSVPTSEWQRGDVFTCSVMHEALHNHYTQKSISRSPGK
light: QVLTQTPSPVSAAVGGTVTINCQASQSVYNKNNLAWYQQKPGQPPKLLIYDASKLASGVPSRFKGGGSGTHFTLTISGVQCDDAATYYCQGTYYSSGWYNTFGGGTKVEIKRDPVAPTVLIFPPAADQVATGTVTIVCVANKYFPDVTVTWEVDGTTQTTGIENSKTPQNSADCTYNLSSTLTLTSTQYNSHKEYTCKVTQGTTSVVQSFNRGDC
notes: anti-aggrecan antibody, rabbit constant regions rbIgG / rbIgK
B9 was tested. Which Kd [7] did it give?
The Kd was 0.00316 µM.

What about the koff [7] of the same binder?
Its koff is 0.000287 s⁻¹.

And the kon [7]?
Its kon is 91100 M⁻¹ s⁻¹.

What about the Kd [8] of the same binder?
The Kd was 0.00442 µM.

What about the koff [8] of the same binder?
The koff was 0.000255 s⁻¹.

What about the kon [8] of the same binder?
The kon was 57700 M⁻¹ s⁻¹.

B10: GRA1013hq-rIgG (antibody)
heavy: EVKLMESGGGLVKPGGSLKLSCAASGFTFSSYAMSWVRQTPEKRLEWVTSISSGGTTYYPDSVKGRFTISRDNARNILFLQMSSLRSEDTAMYYCARGPHWYLDVWGAGTSVTVSSSTKGGQPKAPSVFPLAPCCGDTPSSTVTLGCLVKGYLPEPVTVTWNSGTLTNGVRTFPSVRQSSGLYSLSSVVSVTSSSQPVTCNVAHPATNTKVDKTVAPSTCSKPMCPPPELLGGPSVFIFPPKPKDTLMISRTPEVTCVVVDVSQDDPEVQFTWYINNEQVRTARPPLREQQFNSTIRVVSTLPIAHQDWLRGKEFKCKVHNKALPAPIEKTISKARGQPLEPKVYTMGPPREELSSRSVSLTCMINGFYPSDISVEWEKNGKAEDNYKTTPTVLDSDGSYFLYSKLSVPTSEWQRGDVFTCSVMHEALHNHYTQKSISRSPGK
light: DILMTQTPLSLPVSLGDQASISCRSSQSIVHSNGNTYLEWYLQKPGQSPKLLIYKVSNRFSGVPDRFSGSGSGTDFTLKISRVEAEDLGVYYCFQGSHLPLTFGAGTKLELKRTVAARDPVAPTVLIFPPAADQVATGTVTIVCVANKYFPDVTVTWEVDGTTQTTGIENSKTPQNSADSTYNLSSTLTLTSTQYNSHKEYTCKVTQGTTSVVQSFNRGDC
notes: anti-aggrecan antibody from mouse B cells, rabbit constant regions rbIgG / rbIgK2
Which results are given for B10?
Kd [9]: 1.54 µM; koff [9]: 0.0406 s⁻¹; kon [9]: 26300 M⁻¹ s⁻¹; Kd [10]: 0.459 µM; koff [10]: 0.00973 s⁻¹; kon [10]: 21200 M⁻¹ s⁻¹
